Our source for the binding result and Kd values is article PMC7033311, “The Eaf3 chromodomain acts as a pH sensor for gene expression by altering its binding affinity for histone methylated-lysine residues” (Bioscience Reports, 2020).

Where no end group is shown, it is not given here. [ ]: non-standard residue; d: D form. The star is where a group is joined. MTSL = spin label, CC1(C)C=C(CS*)C(C)(C)N1[O]; Lys(Me3) = C[N+](C)(C)CCCC[C@H](N)C(=O)O

Holding throughout (conditions): both partners purified
Assay [1] deals with T1, Eaf3 chromodomain (Eaf3 CD, residues 1-120), wild type (S. cerevisiae, UniProt Q12432 1-120).
T1 construct: Eaf3 chromodomain (CD), budding yeast (S. cerevisiae), residues 1-120; 15N-labelled for the NMR experiments; expressed from pET15b; also called WT Eaf3 CD; source: E. coli BL21(DE3)pLysS, purified (Ni-NTA, thrombin, Ni-NTA flow-through, Superdex75)
T1 sequence (looked up): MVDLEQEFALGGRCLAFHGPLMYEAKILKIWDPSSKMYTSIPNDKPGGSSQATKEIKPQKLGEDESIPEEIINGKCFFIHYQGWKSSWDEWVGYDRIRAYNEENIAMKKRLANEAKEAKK
Nature of the assay: paramagnetic relaxation enhancement (NMR); MTSL-H3K36me3 peptide added to 0.3 mM 15N-labelled Eaf3 CD at 1:1; 10 mM potassium phosphate pH 6.8, 20 mM NaCl; paramagnetic against ascorbate-reduced sample.

The target in assay [2] is T2, Eaf3 CD (residues 1-120) H18D (S. cerevisiae, UniProt Q12432 1-120, H18D).
T2 construct: Eaf3 chromodomain (CD), budding yeast (S. cerevisiae), residues 1-120, H18D; 15N-labelled for the NMR experiments; also called H18D Eaf3 CD; source: E. coli BL21(DE3)pLysS, purified (Ni-NTA, thrombin, Ni-NTA flow-through, Superdex75)
T2 sequence (looked up): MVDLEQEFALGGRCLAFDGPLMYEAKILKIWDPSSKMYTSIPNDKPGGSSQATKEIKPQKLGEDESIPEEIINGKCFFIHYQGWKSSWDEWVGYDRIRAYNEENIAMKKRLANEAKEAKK
Described as above.

The target in assay [3] is T1, Eaf3 chromodomain (Eaf3 CD, residues …). Briefly: NMR titration; 0.1 mM 15N-labelled WT or mutant Eaf3 CD titrated with unlabelled histone H3 peptide up to 1:88; 10 mM potassium phosphate pH 6.8, 20 mM NaCl, 5 mM DTT, 25°C; Kd by nonlinear fit of chemical shift change.
The target of assay [4] is T3, Eaf3 CD (residues 1-120) G19A (S. cerevisiae, UniProt Q12432 1-120, G19A).
T3 construct: Eaf3 chromodomain (CD), budding yeast (S. cerevisiae), residues 1-120, G19A; 15N-labelled for the NMR experiments; source: E. coli BL21(DE3)pLysS, purified (Ni-NTA, thrombin, Ni-NTA flow-through, Superdex75)
T3 sequence (looked up): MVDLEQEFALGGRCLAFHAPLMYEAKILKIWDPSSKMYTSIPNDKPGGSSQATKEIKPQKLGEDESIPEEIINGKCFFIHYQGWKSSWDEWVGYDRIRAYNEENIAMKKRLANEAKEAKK
Described as above.

For assay [5], the target named is T4, Eaf3 CD (residues 1-120) W84Y (S. cerevisiae, UniProt Q12432 1-120, W84Y).
T4 construct: Eaf3 chromodomain (CD), budding yeast (S. cerevisiae), residues 1-120, W84Y; 15N-labelled for the NMR experiments; source: E. coli BL21(DE3)pLysS, purified (Ni-NTA, thrombin, Ni-NTA flow-through, Superdex75)
T4 sequence (looked up): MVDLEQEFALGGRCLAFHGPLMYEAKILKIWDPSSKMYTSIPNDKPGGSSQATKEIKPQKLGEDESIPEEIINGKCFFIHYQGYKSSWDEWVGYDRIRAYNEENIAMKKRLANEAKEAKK
Described as above.

The target of assay [6] is T5, Eaf3 CD (residues 1-120) Q82A (S. cerevisiae, UniProt Q12432 1-120, Q82A).
T5 construct: Eaf3 chromodomain (CD), budding yeast (S. cerevisiae), residues 1-120, Q82A; 15N-labelled for the NMR experiments; source: E. coli BL21(DE3)pLysS, purified (Ni-NTA, thrombin, Ni-NTA flow-through, Superdex75)
T5 sequence (looked up): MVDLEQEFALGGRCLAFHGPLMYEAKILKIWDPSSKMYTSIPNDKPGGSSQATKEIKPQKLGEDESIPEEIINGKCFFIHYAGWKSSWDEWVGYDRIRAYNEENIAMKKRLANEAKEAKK
The assay is described as above.

B1: MTSL spin-labelled H3K36me3 peptide (residues 32-41) with a Gly33Cys substitution (peptide, UniProt P61830 33-42, looked up)
peptide: TC(MTSL)GVK(me3)KPHRY
notes: histone H3 residues 32-41 with Gly33Cys; also called MTSL-H3K36me3 peptide; paramagnetically labeled H3K36me3 peptide; source: synthetic peptide (SIGMA Genosys), labelled with MTSL
With B1, the binding result in assay [1] and in assay [2] was “binds” in each case.

Take ART[Lys(Me3)]QTARKSTGGKAPRY [histone H3 peptide H3K4me3, titration peptide]: the Kd (in general, the equilibrium constant for the complex coming apart) in assay [3] was 2900 ± 10 µM; in assay [4], 800 ± 70 µM; in assay [5], 1590 ± 280 µM; in assay [6], 2240 ± 280 µM.
